What was measured:
[1] = target: the molecule itself; test: SEC; gel filtration on Superdex 200, 250 mM NaCl, 10 mM Tris-HCl pH 8.0; MBP-tagged proteins, 1 mg each where told
[2] = target: the molecule itself; test: AUC; sedimentation velocity, 50,000 r.p.m., 20.0 °C, 250 mM NaCl, 10 mM Tris-HCl pH 8.0; 0.187 and 1.53 mg/mL; c(s) distributions; monomer to homodimer and homotetramer
[3] = target: the molecule itself; test: SEC-MALS; DAWN HELEOS 8+, room temperature, samples at 1 mg/mL in 250 mM NaCl, 10 mM Tris-HCl pH 8.0; ASTRA analysis
[4] = target: T1, caspase-11 p20 subunit of the catalytic domain (murine, UniProt P70343 60-266); test: SEC; analytical gel-filtration column of auto-processed wild-type caspase-11 from E. coli; the fraction then on an SDS gel, bands identified by N-terminal sequencing and mass spectrum; details: both partners purified
T1 construct: caspase-11, murine, p20 subunit, residues 60–266; source: E. coli, by auto-processing of MBP-tagged full-length wild-type caspase-11, purified
T1 sequence (looked up): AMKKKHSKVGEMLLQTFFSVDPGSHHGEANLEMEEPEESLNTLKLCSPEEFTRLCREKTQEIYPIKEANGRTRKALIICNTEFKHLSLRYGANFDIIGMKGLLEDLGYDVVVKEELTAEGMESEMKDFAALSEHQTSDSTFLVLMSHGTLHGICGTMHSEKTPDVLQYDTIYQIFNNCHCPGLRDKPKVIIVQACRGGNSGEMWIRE

Binder	binding result [1]	also measured
MBP-caspase-11 protein carrying only the C254A mutation (C254A-caspase-11) (enzyme, murine, UniProt P70343 1-373, looked up, caspase-11, murine, full-length protein with C254A; also called MBP-caspase-11 C254A; source: E. coli, purified (gel filtration); not shown: MBP, N-terminal, kept; His6, C-terminal, kept) MAENKHPDKPLKVLEQLGKEVLTEYLEKLVQSNVLKLKEEDKQKFNNAERSDKRWVFVDAMKKKHSKVGEMLLQTFFSVDPGSHHGEANLEMEEPEESLNTLKLCSPEEFTRLCREKTQEIYPIKEANGRTRKALIICNTEFKHLSLRYGANFDIIGMKGLLEDLGYDVVVKEELTAEGMESEMKDFAALSEHQTSDSTFLVLMSHGTLHGICGTMHSEKTPDVLQYDTIYQIFNNCHCPGLRDKPKVIIVQAARGGNSGEMWIRESSKPQLCRGVDLPRNMEADAVKLSHVEKDFIAFYSTTPHHLSYRDKTGGSYFITRLISCFRKHACSCHLFDIFLKVQQSFEKASIHSQMPTIDRATLTRYFYLFPGN	binds	–
MBP-tagged caspase-11 CARD, residues 1–101 (WT-CARD^aa1–101) (domain or fragment, murine, UniProt P70343 1-101, looked up, source: E. coli Rosetta and BL21 (DE3), purified (nickel column, Superdex 200 gel filtration); not shown: MBP, N-terminal, kept; His6, C-terminal, kept) MAENKHPDKPLKVLEQLGKEVLTEYLEKLVQSNVLKLKEEDKQKFNNAERSDKRWVFVDAMKKKHSKVGEMLLQTFFSVDPGSHHGEANLEMEEPEESLNT	–	stoichiometry N [2]: 2; stoichiometry N [3]: 4
MBP-tagged caspase-11 CARD, residues 1–101, V13A L14A L17A V21A (VLLV-CARD^aa1–101) (domain or fragment, murine, UniProt P70343 1-101, looked up, source: E. coli, purified (nickel column, gel filtration); not shown: MBP, N-terminal, kept; His6, C-terminal, kept) MAENKHPDKPLKAAEQAGKEALTEYLEKLVQSNVLKLKEEDKQKFNNAERSDKRWVFVDAMKKKHSKVGEMLLQTFFSVDPGSHHGEANLEMEEPEESLNT	binds	–
MBP-tagged WT-CARD^aa1–101 with the first ten amino acids replaced by a GS repeat sequence (GS repeat mutant) (domain or fragment, murine, flexible GS repeat that replaces the first ten amino acids of caspase-11; source: E. coli, purified (nickel column, gel filtration); not shown: MBP, N-terminal, kept; His6, C-terminal, kept) GSGSGSGSGSLKVLEQLGKEVLTEYLEKLVQSNVLKLKEEDKQKFNNAERSDKRWVFVDAMKKKHSKVGEMLLQTFFSVDPGSHHGEANLEMEEPEESLNT	binds	–
caspase-11 p10 subunit of the catalytic domain (domain or fragment, murine, UniProt P70343 286-373, looked up, caspase-11, murine, p10 subunit, residues 286–373; source: E. coli, by auto-processing of MBP-tagged full-length wild-type caspase-11, purified) AVKLSHVEKDFIAFYSTTPHHLSYRDKTGGSYFITRLISCFRKHACSCHLFDIFLKVQQSFEKASIHSQMPTIDRATLTRYFYLFPGN	–	binding result [4]: binds
